System: Escherichia coli TOP10
Test: shrunken log2 fold change of peptide-encoding DNA abundance (4.5 h post-induction vs induction); higher = less antimicrobial activity (less host growth inhibition)
Settings: time post-induction: 4.5 h; library: site-saturation at positions 5, 18, 19, 20
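Note: peptides expressed intracellularly from a pBAD plasmid library in pooled LB shake-flask culture, induced with 0.3% L-arabinose, DNA abundance read by NGS, three biological replicates, DESeq2 with apeglm shrinkage.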

| Sequence | shrunken log2 fold change |
| --- | --- |
| RRIRGRPPRLPRPRPRPLWAPRP | 0.681 |
| RRIRERPPRLPRPRPRPTPFPRP | -0.211 |
| RRIRWRPPRLPRPRPRPNFSPRP | -0.305 |
| RRIRRRPPRLPRPRPRPPMAPRP | 0.487 |
| RRIRVRPPRLPRPRPRPQVVPRP | -0.00557 |
| RRIRLRPPRLPRPRPRPDVYPRP | -0.0227 |
| RRIRCRPPRLPRPRPRPAQSPRP | 0.345 |
| RRIRNRPPRLPRPRPRPRKAPRP | 0.473 |
| RRIRPRPPRLPRPRPRPEVFPRP | 0.0976 |
| RRIRCRPPRLPRPRPRPTYNPRP | -0.722 |
| RRIRRRPPRLPRPRPRPTSQPRP | 0.249 |
| RRIRVRPPRLPRPRPRPPKWPRP | 0.133 |
| RRIRARPPRLPRPRPRPLKHPRP | -0.0681 |
| RRIRVRPPRLPRPRPRPISEPRP | -0.282 |
| RRIRARPPRLPRPRPRPRLLPRP | 0.526 |
| RRIRCRPPRLPRPRPRPDFRPRP | 0.00204 |
| RRIRARPPRLPRPRPRPEKFPRP | -0.0388 |
| RRIRVRPPRLPRPRPRPDNDPRP | -0.232 |
| RRIRARPPRLPRPRPRPMCNPRP | 0.186 |
| RRIRKRPPRLPRPRPRPPYRPRP | -0.17 |
| RRIRVRPPRLPRPRPRPLPMPRP | 0.0885 |
| RRIRHRPPRLPRPRPRPRYAPRP | -0.0694 |
| RRIRNRPPRLPRPRPRPRCRPRP | 0.104 |
| RRIRERPPRLPRPRPRPSLHPRP | -0.309 |
| RRIRDRPPRLPRPRPRPLVGPRP | 0.337 |

| Sequence | shrunken log2 fold change |
| --- | --- |
| RRIRIRPPRLPRPRPRPITPPRP | -0.421 |
| RRIRSRPPRLPRPRPRPCWHPRP | -0.245 |
| RRIRIRPPRLPRPRPRPWYQPRP | 0.00187 |
| RRIRIRPPRLPRPRPRPPFQPRP | 0.0365 |
| RRIRWRPPRLPRPRPRPSRSPRP | 0.0592 |
| RRIRKRPPRLPRPRPRPTVYPRP | -0.0794 |
| RRIRSRPPRLPRPRPRPLQEPRP | 0.144 |
| RRIRKRPPRLPRPRPRPTKWPRP | 0.172 |
| RRIRARPPRLPRPRPRPPDSPRP | 0.212 |
| RRIRLRPPRLPRPRPRPFRKPRP | 0.0823 |
| RRIRFRPPRLPRPRPRPHRDPRP | -0.36 |
| RRIRCRPPRLPRPRPRPWGIPRP | -0.59 |
| RRIRVRPPRLPRPRPRPVHVPRP | -0.0459 |
| RRIRSRPPRLPRPRPRPEDGPRP | 0.0117 |
| RRIRRRPPRLPRPRPRPRVMPRP | 0.413 |
| RRIRPRPPRLPRPRPRPHGMPRP | -0.531 |
| RRIRPRPPRLPRPRPRPIVKPRP | 0.000733 |
| RRIRWRPPRLPRPRPRPCPKPRP | -0.0941 |
| RRIRQRPPRLPRPRPRPPPCPRP | 0.393 |
| RRIRGRPPRLPRPRPRPSRIPRP | -0.234 |
| RRIRHRPPRLPRPRPRPVQCPRP | -0.00186 |
| RRIRLRPPRLPRPRPRPAAYPRP | -0.15 |
| RRIRVRPPRLPRPRPRPSHNPRP | -0.692 |
| RRIRMRPPRLPRPRPRPNQMPRP | 0.217 |
| RRIRPRPPRLPRPRPRPYHFPRP | -0.245 |

| Sequence | shrunken log2 fold change |
| --- | --- |
| RRIRKRPPRLPRPRPRPCHTPRP | 0.0319 |
| RRIRYRPPRLPRPRPRPVTKPRP | -0.543 |
| RRIRHRPPRLPRPRPRPMNKPRP | -0.329 |
| RRIRQRPPRLPRPRPRPARHPRP | 0.0911 |
| RRIRLRPPRLPRPRPRPTSKPRP | -0.253 |
| RRIRIRPPRLPRPRPRPKNCPRP | -0.164 |
| RRIRTRPPRLPRPRPRPRQNPRP | 0.067 |
| RRIRFRPPRLPRPRPRPCWSPRP | -0.443 |
| RRIRCRPPRLPRPRPRPSCGPRP | -0.103 |
| RRIRHRPPRLPRPRPRPQAFPRP | -0.0247 |
| RRIRRRPPRLPRPRPRPMVAPRP | 0.363 |
| RRIRIRPPRLPRPRPRPVDNPRP | -0.0726 |
| RRIRVRPPRLPRPRPRPWAYPRP | -0.323 |
| RRIRARPPRLPRPRPRPFDVPRP | -0.0821 |
| RRIRRRPPRLPRPRPRPFQWPRP | 0.194 |
| RRIRHRPPRLPRPRPRPRSEPRP | 0.117 |
| RRIRVRPPRLPRPRPRPKTTPRP | -0.0198 |
| RRIRSRPPRLPRPRPRPIKMPRP | -0.47 |
| RRIRIRPPRLPRPRPRPLFWPRP | -0.145 |
| RRIRARPPRLPRPRPRPFIPPRP | -0.492 |
| RRIRFRPPRLPRPRPRPLCFPRP | -0.211 |
| RRIRCRPPRLPRPRPRPLCMPRP | -0.0162 |
| RRIRLRPPRLPRPRPRPTIRPRP | -0.0201 |
| RRIRFRPPRLPRPRPRPWRQPRP | -0.103 |
| RRIRARPPRLPRPRPRPYVCPRP | -0.255 |

— the supplement of paper PMC9112550, “Optimization of the antimicrobial peptide Bac7 by deep mutational scanning” (BMC Biology, 2022)
